The source of these data is patent US20170322229A1, “HIGH AFFINITY VITAMIN D3 BINDING PROTEINS” (UNIVERSITY OF WASHINGTON, priority 2015, published 2017).

Experiment [1] in a line: Fluorescence polarization binding of 25-D3. The settings on record: read-out: Approximate Kd. For orientation: Fluorescence polarisation rises when a labelled molecule tumbles more slowly, as on binding a larger partner.
Experiment [2] is described as follows: Yeast surface display and flow cytometry binding/titration against 25-D3. As to conditions: for Kd: yeast surface display, 25-D3. From the text: We discovered another binder for 25-D3, referred to here as CDL2. […] It was further evolved to investigate and improve its specificity and affinity. To test a broader number of mutants, CDL2 was optimized using ep-PCR as well as small computationally guided library. The computationally guided library was constructed by docking the ligand into the binding site and optimizing the interactions between 25-D3 and the protein using ROSETTA®. To increase the sampling of the ligand, short MD simulations were performed to make small perturbations of the backbone. These computational variants, as well as variants generated via error prone mutagenesis, were expressed on yeast and sorted via fluorescence activated cell sorting. Individual designs sequenced from various rounds of mutagenesis and sorting were sequenced during the evolution to inform further design and mutagenesis strategies. One evolved variant, CDL2.1, incorporated 10 mutations scattered around the protein. Another evolved variant CDL2.2 is the most advanced variant from the directed evolution efforts.
(§1) Binding activity yeast surface display and flow cytometry, according to methods previously described by Wittrup et al.
On the technique in general: A flow cytometer gives signals particle by particle.

A short description of experiment [3]: Approximate Kd summary (Table 4) / measured binder ranking, method not stated. Format: binding. As to conditions: Ligand Target 25-hydroxycholecalciferol.
The nature of experiment [4]: Yeast surface display and flow cytometry titration against vitamin D3. In kind it is binding. As to conditions: for specificity for 25-D3 over vitamin D3: preference for 25-D3 over non-hydroxylated vitamin D3.
Text: as §1

B1: CDL2.2: slightly truncated from HH35.v1/CDL2.1; most advanced variant from the directed evolution efforts (protein)
chain: QSAKEAIEAALADFVKVYNSKDAAGVASKYMDDAAIFPLDMAPVDGRQNIQKLWQGLMDMGVSEPKFTTLNVQKSGDFAFESGSFSLKGPGKDSKLVGIAGIYVEVWRKGQDGGWKLYRTIANLGP
What is called Kd is the constant that tells how readily two partners part at equilibrium. Take B1: the Kd in experiment [1] is around 188 nM.

B2: CDL1: designed 25-D3 binder based on scaffold PDB ID 1Z1S, a putative isomerase; 8 mutations from 1Z1S (protein)
chain: SGREQGHMNAKEILVHALRLVENGDARGFCDLFHPEGVMEFPYAPPGYKTRFEGRETIWAHMRLFPEHLTIRFTDVQFYETADPDLAIGEFHGDGVATVSGGKLAQDFISVLRTRDGQILLSRIFWNPLRHLEALGGVEAAAKIVQGA
As for B2, the values for the Kd in experiment [2] (read-out: Kd) and in experiment [3] were around 2000 nM and 1300 nM, respectively. For the same molecule, the “specificity for 25-D3 over vitamin D3” value in experiment [4] is given as “did not show a significant preference”.

B3: CDL2.1: evolved variant of CDL2 incorporating 10 mutations scattered around the protein (protein)
chain: DQSAKEAIEAALADFVKVYNSKDAAGVASKYMDDAAIFPLDMAPVDGRQNIQKLWQGLMDMGVSEPKFTTLNVQKSGDFAFESGSFSLKGPGKDSKLVDIAGIYVEVWRKGQDGGWKLYRTIANLDPAK
As to B3, the Kd in experiment [2] (read-out: Approximate Kd) is around 319 nM; in experiment [3], 319 nM; in experiment [4] (yeast surface display, vitamin D3, read-out: Approximate Kd) it was around 1900 nM.

B4: CDL2: designed 25-D3 binding protein based on scaffold PDB ID 3HX8, a putative ketosteroid isomerase (protein)
chain: GQSAKEAIEAALADFVKAYNSKDAAGVASKYMDDAAIFPLDMARVDGRQNIQKLWQGLMDMGVSELKLTTLDVQESGDFAFESGSFSLKGPGKDSKLVDVAGKYVVVWRKGQDGGWKLYRTISNLDPAK
For the molecule B4, the “binding signal for 25-D3 on yeast” value in experiment [2] (yeast display and flow cytometry, biotinylated 25-D3) is on record as “exceptionally strong signal”. Further, the Kd is 2100 nM in experiment [3] and around 2100 nM in experiment [1].

B5: CDL1.1: evolved variant of CDL1 with mutations P46S, R55A, H68P, G136V; truncated as well as mutated from 6234 (protein)
chain: NLYFQGHMNAKEILVHALRLVENGDARGFCDLFHPEGVMEFPYAPSGYKTRFEGAETIWAHMRLFPEPLTIRFTDVQFYETADPDLAIGEFHGDGVATVSGGKLAQDFISVLRTRDGQILLSRIFWNPLRHLEALV
Turning to B5, the Kd was around 229 nM in experiment [2] (read-out: Approximate Kd) and 229 nM in experiment [3]. For the same molecule, in experiment [4], the “specificity for 25-D3 over vitamin D3” value is listed as “about two fold over CDL1”.
